{
  "source": "patent US20260226131A1",
  "about": "(SHANGHAI INSTITUTE OF MATERIA MEDICA CHINESE ACADEMY OF …, published 2026)",
  "molecules": {"B1": {"name": "Insulin-Fc fusion protein of Example 8 (des B27-30+A3-A+A21G) (Fc fusion)", "chain": "FVNQHLCGSHLVEALYLVCGERGFFYGGVGGGGIAEQCCTSICSLYQLENYCGGGGGSGGGGSGGGGSGGGGSERKSSVESPPSPAPPVAGPSVFLFPPKPKDTLMISRTPEVTCVVVDVSQEDPEVQFNWYVDGVEVHNAKTKPREEQFNSTFRVVSVLTVLHQDWLNGKEYKCKVSNKGLPSSIEKTISKTKGQPREPQVYTLPPSREEMTKNQVSLTCLVKGFYPSDIAVEWESNGQPENNYKTTPPMLDSDGSFFLYSKLTVDKSRWQQGNVFSCSVMHEALHNHYTQKSLSLSLG"}, "B2": {"name": "Insulin-Fc fusion protein of Example 1 (B27E+A3-A+A21G) (Fc fusion)", "chain": "FVNQHLCGSHLVEALYLVCGERGFFYEPKTGGVGGGGIAEQCCTSICSLYQLENYCGGGGGSGGGGSGGGGSGGGGSERKSSVESPPSPAPPVAGPSVFLFPPKPKDTLMISRTPEVTCVVVDVSQEDPEVQFNWYVDGVEVHNAKTKPREEQFNSTFRVVSVLTVLHQDWLNGKEYKCKVSNKGLPSSIEKTISKTKGQPREPQVYTLPPSREEMTKNQVSLTCLVKGFYPSDIAVEWESNGQPENNYKTTPPMLDSDGSFFLYSKLTVDKSRWQQGNVFSCSVMHEALHNHYTQKSLSLSLG"}, "B3": {"name": "Insulin-Fc fusion protein of Example 7 (B25-T+B27-E A3-A+A21G) (Fc fusion)", "chain": "B2 chain with F25T"}, "B4": {"name": "Insulin-Fc fusion protein of Example 6 (B16-A+A3-A+A21G) (Fc fusion)", "chain": "B2 chain with Y16A, E27T"}, "B5": {"name": "Insulin-Fc fusion protein of Example 5 (B5-A+A21G) (Fc fusion)", "chain": "B2 chain with H5A, E27T, A39V"}},
  "key": {"[1]": {"target": "IGF-1R-His tag (Sino Biological), human insulin-like growth factor 1 receptor (human) (UniProt P08069)", "experiment": "BLI (Octet), IGF-1R-His captured on Ni-NTA probe, 1:1 fit"}, "[2]": {"target": "T1, human insulin receptor extracellular domain protein (hIRB-ECD, Sino Biological Inc.) (human, UniProt P06213 28-956)", "T1 construct": "extracellular domain; Bought protein coated on the ELISA plate", "experiment": "ELISA, coated hIRB-ECD, anti-human IgG HRP detection"}, "[3]": {"target": "T2, human insulin receptor isoform B (hIRB), membranes of CHO cells overexpressing hIRB (human, UniProt P06213 28-1382)", "T2 construct": "whole, on cells; The assay used cell membrane preparations", "experiment": "competition with [125I]-insulin, CHO-hIRB membranes (SPA)"}, "[4]": {"target": "T3, human insulin receptor isoform A (hIRA), membranes of CHO cells overexpressing hIRA (human, UniProt P06213-2 28-1370)", "T3 construct": "whole, on cells; The assay used cell membrane preparations", "experiment": "competition with [125I]-insulin, CHO-hIRA membranes (SPA)"}, "[5]": {"target": "T4, IGF-1R-His tag (Sino Biological), human insulin-like growth factor 1 receptor (human, UniProt P08069 31-932, limits assumed)", "T4 construct": "Bought recombinant protein captured on Ni-NTA probes; also called His-tagged IGF-1R protein; not shown: His tag", "experiment": "BLI (Octet), IGF-1R-His captured on Ni-NTA probe, 1:1 fit"}},
  "note": "Substitutions are numbered along the chain they refer to. Names may count otherwise.",
  "data": [
    {"molecule": "glargine insulin (Lantus, Sanofi) (ligand)", "values": [
      {"measurement": "Kd", "setting": "[1]", "value": 764, "unit": "nM"},
      {"measurement": "koff", "setting": "[1]", "value": 0.0192, "unit": "s⁻¹"},
      {"measurement": "kon", "setting": "[1]", "value": 25100, "unit": "M⁻¹ s⁻¹"}
    ]},
    {"molecule": "B1", "values": [
      {"measurement": "EC50", "setting": "[2]", "value": 314, "unit": "nM"}
    ]},
    {"molecule": "B2", "values": [
      {"measurement": "IC50", "setting": "[3]", "value": 509, "unit": "nM"},
      {"measurement": "Maximum Receptor Binding Activity (%) Relative to RHI", "setting": "[3]", "value": 74.3, "unit": "%"},
      {"measurement": "IC50", "setting": "[4]", "value": 102, "unit": "nM"},
      {"measurement": "Maximum Receptor Binding Activity (%) Relative to RHI", "setting": "[4]", "value": 78.7, "unit": "%"},
      {"measurement": "Kd", "setting": "[5]", "value": 6490, "unit": "nM"},
      {"measurement": "koff", "setting": "[5]", "value": 0.00336, "unit": "s⁻¹"},
      {"measurement": "kon", "setting": "[5]", "value": 518, "unit": "M⁻¹ s⁻¹"},
      {"measurement": "EC50", "setting": "[2]", "value": 160, "unit": "nM"}
    ]},
    {"molecule": "B3", "values": [
      {"measurement": "EC50", "setting": "[2]", "value": 699, "unit": "nM"}
    ]},
    {"molecule": "B4", "values": [
      {"measurement": "EC50", "setting": "[2]", "value": 445, "unit": "nM"}
    ]},
    {"molecule": "B5", "values": [
      {"measurement": "EC50", "setting": "[2]", "value": 160, "unit": "nM"}
    ]}
  ]
}
